# Starred links: 1 amine or outer side, 2 acyl side, 3 side chain; linkers in the order of their positions; H or OH if unused. Non-standard residues stand in square brackets, D forms with d. Groups on a side chain read outwards from the residue. No end group written: not given here. *: point of attachment. C20 diacid = O=C(O)CCCCCCCCCCCCCCCCCCC(=O)*; γGlu = O=C(O)[C@H](CCC(=O)[*:2])N[*:1]; NMeY = CN[C@@H](Cc1ccc(O)cc1)C(=O)O
# T1: NPY5R
# T1 sequence (Q15761 1-445, species assumed, looked up): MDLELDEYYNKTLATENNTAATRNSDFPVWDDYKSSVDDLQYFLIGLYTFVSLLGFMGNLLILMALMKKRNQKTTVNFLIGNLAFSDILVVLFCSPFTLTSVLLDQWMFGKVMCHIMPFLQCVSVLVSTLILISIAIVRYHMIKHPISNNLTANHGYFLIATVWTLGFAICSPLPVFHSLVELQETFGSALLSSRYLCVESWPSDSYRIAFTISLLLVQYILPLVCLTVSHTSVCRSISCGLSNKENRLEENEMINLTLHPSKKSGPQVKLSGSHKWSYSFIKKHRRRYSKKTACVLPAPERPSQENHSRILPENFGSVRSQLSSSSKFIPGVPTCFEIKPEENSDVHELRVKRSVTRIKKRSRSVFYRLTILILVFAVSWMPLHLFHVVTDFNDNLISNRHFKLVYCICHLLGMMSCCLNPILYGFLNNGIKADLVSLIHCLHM
# T2: NPY2R
# T2 sequence (P49146 1-381, species assumed, looked up): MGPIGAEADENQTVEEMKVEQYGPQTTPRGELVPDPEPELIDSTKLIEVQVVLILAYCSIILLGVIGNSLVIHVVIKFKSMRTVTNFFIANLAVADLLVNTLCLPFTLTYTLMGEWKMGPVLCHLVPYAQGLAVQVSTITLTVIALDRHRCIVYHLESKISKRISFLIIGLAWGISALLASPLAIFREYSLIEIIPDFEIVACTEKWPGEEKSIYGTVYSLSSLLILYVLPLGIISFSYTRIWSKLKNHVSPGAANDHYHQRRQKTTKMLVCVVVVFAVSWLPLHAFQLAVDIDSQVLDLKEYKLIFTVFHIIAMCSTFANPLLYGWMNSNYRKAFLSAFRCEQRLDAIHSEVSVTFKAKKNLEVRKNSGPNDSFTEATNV
# Assays:
# NPY5R = biological target: T1, NPY5R; test: cell-based or functional assay
# NPY2R = biological target: T2, NPY2R; test: cell-based or functional assay
Binder,NPY5R pEC50 (NPY5R),NPY2R pEC50 (NPY2R)
PKPK([γGlu-γGlu-C20 diacid])APGKDASPEEWNRYYADARHYLNWLTRQR[NMeY]-NH2 (N-terminus assumed; SMILES CC(C)C[C@H](NC(=O)[C@H](Cc1ccc(O)cc1)NC(=O)[C@H](Cc1c[nH]cn1)NC(=O)[C@H](CCCNC(=N)N)NC(=O)[C@H](C)NC(=O)[C@H](CC(=O)O)NC(=O)[C@H](C)NC(=O)[C@H](Cc1ccc(O)cc1)NC(=O)[C@H](Cc1ccc(O)cc1)NC(=O)[C@H](CCCNC(=N)N)NC(=O)[C@H](CC(N)=O)NC(=O)[C@H](Cc1c[nH]c2ccccc12)NC(=O)[C@H](CCC(=O)O)NC(=O)[C@H](CCC(=O)O)NC(=O)[C@@H]1CCCN1C(=O)[C@H](CO)NC(=O)[C@H](C)NC(=O)[C@H](CC(=O)O)NC(=O)[C@H](CCCCN)NC(=O)CNC(=O)[C@@H]1CCCN1C(=O)[C@H](C)NC(=O)[C@H](CCCCNC(=O)CC[C@H](NC(=O)CC[C@H](NC(=O)CCCCCCCCCCCCCCCCCCC(=O)O)C(=O)O)C(=O)O)NC(=O)[C@@H]1CCCN1C(=O)[C@H](CCCCN)NC(=O)[C@@H]1CCCN1)C(=O)N[C@@H](CC(N)=O)C(=O)N[C@@H](Cc1c[nH]c2ccccc12)C(=O)N[C@@H](CC(C)C)C(=O)N[C@H](C(=O)N[C@@H](CCCNC(=N)N)C(=O)N[C@@H](CCC(N)=O)C(=O)N[C@@H](CCCNC(=N)N)C(=O)N(C)[C@@H](Cc1ccc(O)cc1)C(N)=O)[C@@H](C)O) [Compound A6],"7.7 -Log(EC50, M)","8.9 -Log(EC50, M)"
PK([γGlu-γGlu-C20 diacid])PEAPGKDASPEEWNRYYADARHYLNWLTRQR[NMeY]-NH2 (N-terminus assumed; SMILES CC(C)C[C@H](NC(=O)[C@H](Cc1ccc(O)cc1)NC(=O)[C@H](Cc1c[nH]cn1)NC(=O)[C@H](CCCNC(=N)N)NC(=O)[C@H](C)NC(=O)[C@H](CC(=O)O)NC(=O)[C@H](C)NC(=O)[C@H](Cc1ccc(O)cc1)NC(=O)[C@H](Cc1ccc(O)cc1)NC(=O)[C@H](CCCNC(=N)N)NC(=O)[C@H](CC(N)=O)NC(=O)[C@H](Cc1c[nH]c2ccccc12)NC(=O)[C@H](CCC(=O)O)NC(=O)[C@H](CCC(=O)O)NC(=O)[C@@H]1CCCN1C(=O)[C@H](CO)NC(=O)[C@H](C)NC(=O)[C@H](CC(=O)O)NC(=O)[C@H](CCCCN)NC(=O)CNC(=O)[C@@H]1CCCN1C(=O)[C@H](C)NC(=O)[C@H](CCC(=O)O)NC(=O)[C@@H]1CCCN1C(=O)[C@H](CCCCNC(=O)CC[C@H](NC(=O)CC[C@H](NC(=O)CCCCCCCCCCCCCCCCCCC(=O)O)C(=O)O)C(=O)O)NC(=O)[C@@H]1CCCN1)C(=O)N[C@@H](CC(N)=O)C(=O)N[C@@H](Cc1c[nH]c2ccccc12)C(=O)N[C@@H](CC(C)C)C(=O)N[C@H](C(=O)N[C@@H](CCCNC(=N)N)C(=O)N[C@@H](CCC(N)=O)C(=O)N[C@@H](CCCNC(=N)N)C(=O)N(C)[C@@H](Cc1ccc(O)cc1)C(N)=O)[C@@H](C)O) [Compound A5],"8 -Log(EC50, M)","7.7 -Log(EC50, M)"
PKPEK([γGlu-γGlu-C20 diacid])PGKDASPKEWNRYYKDLRHYLNWLTRQRF-NH2 (N-terminus assumed; SMILES CC(C)C[C@H](NC(=O)[C@H](CC(=O)O)NC(=O)[C@H](CCCCN)NC(=O)[C@H](Cc1ccc(O)cc1)NC(=O)[C@H](Cc1ccc(O)cc1)NC(=O)[C@H](CCCNC(=N)N)NC(=O)[C@H](CC(N)=O)NC(=O)[C@H](Cc1c[nH]c2ccccc12)NC(=O)[C@H](CCC(=O)O)NC(=O)[C@H](CCCCN)NC(=O)[C@@H]1CCCN1C(=O)[C@H](CO)NC(=O)[C@H](C)NC(=O)[C@H](CC(=O)O)NC(=O)[C@H](CCCCN)NC(=O)CNC(=O)[C@@H]1CCCN1C(=O)[C@H](CCCCNC(=O)CC[C@H](NC(=O)CC[C@H](NC(=O)CCCCCCCCCCCCCCCCCCC(=O)O)C(=O)O)C(=O)O)NC(=O)[C@H](CCC(=O)O)NC(=O)[C@@H]1CCCN1C(=O)[C@H](CCCCN)NC(=O)[C@@H]1CCCN1)C(=O)N[C@@H](CCCNC(=N)N)C(=O)N[C@@H](Cc1c[nH]cn1)C(=O)N[C@@H](Cc1ccc(O)cc1)C(=O)N[C@@H](CC(C)C)C(=O)N[C@@H](CC(N)=O)C(=O)N[C@@H](Cc1c[nH]c2ccccc12)C(=O)N[C@@H](CC(C)C)C(=O)N[C@H](C(=O)N[C@@H](CCCNC(=N)N)C(=O)N[C@@H](CCC(N)=O)C(=O)N[C@@H](CCCNC(=N)N)C(=O)N[C@@H](Cc1ccccc1)C(N)=O)[C@@H](C)O) [Compound A71],"8.8 -Log(EC50, M)","10.7 -Log(EC50, M)"
PKPEAPGK([γGlu-γGlu-C20 diacid])DASPKEWNRYYKDLRHYLNWLTRQRF-NH2 [Compound A73],"8.6 -Log(EC50, M)","10.3 -Log(EC50, M)"

# Continued, values first:
NPY5R pEC50 (NPY5R),NPY2R pEC50 (NPY2R),Binder
"9 -Log(EC50, M)","10.3 -Log(EC50, M)",PKPEKPGK([γGlu-γGlu-C20 diacid])DASPEEWNRYYKDLRHYLNWLTRQRF-NH2 (N-terminus assumed; SMILES CC(C)C[C@H](NC(=O)[C@H](CC(=O)O)NC(=O)[C@H](CCCCN)NC(=O)[C@H](Cc1ccc(O)cc1)NC(=O)[C@H](Cc1ccc(O)cc1)NC(=O)[C@H](CCCNC(=N)N)NC(=O)[C@H](CC(N)=O)NC(=O)[C@H](Cc1c[nH]c2ccccc12)NC(=O)[C@H](CCC(=O)O)NC(=O)[C@H](CCC(=O)O)NC(=O)[C@@H]1CCCN1C(=O)[C@H](CO)NC(=O)[C@H](C)NC(=O)[C@H](CC(=O)O)NC(=O)[C@H](CCCCNC(=O)CC[C@H](NC(=O)CC[C@H](NC(=O)CCCCCCCCCCCCCCCCCCC(=O)O)C(=O)O)C(=O)O)NC(=O)CNC(=O)[C@@H]1CCCN1C(=O)[C@H](CCCCN)NC(=O)[C@H](CCC(=O)O)NC(=O)[C@@H]1CCCN1C(=O)[C@H](CCCCN)NC(=O)[C@@H]1CCCN1)C(=O)N[C@@H](CCCNC(=N)N)C(=O)N[C@@H](Cc1c[nH]cn1)C(=O)N[C@@H](Cc1ccc(O)cc1)C(=O)N[C@@H](CC(C)C)C(=O)N[C@@H](CC(N)=O)C(=O)N[C@@H](Cc1c[nH]c2ccccc12)C(=O)N[C@@H](CC(C)C)C(=O)N[C@H](C(=O)N[C@@H](CCCNC(=N)N)C(=O)N[C@@H](CCC(N)=O)C(=O)N[C@@H](CCCNC(=N)N)C(=O)N[C@@H](Cc1ccccc1)C(N)=O)[C@@H](C)O) [Compound A74]
"8.5 -Log(EC50, M)","10.2 -Log(EC50, M)",PKPEK([γGlu-γGlu-C20 diacid])PGEDASPKEWDRYYKDLRHYLNWLTRQRF-NH2 (N-terminus assumed; SMILES CC(C)C[C@H](NC(=O)[C@H](CC(=O)O)NC(=O)[C@H](CCCCN)NC(=O)[C@H](Cc1ccc(O)cc1)NC(=O)[C@H](Cc1ccc(O)cc1)NC(=O)[C@H](CCCNC(=N)N)NC(=O)[C@H](CC(=O)O)NC(=O)[C@H](Cc1c[nH]c2ccccc12)NC(=O)[C@H](CCC(=O)O)NC(=O)[C@H](CCCCN)NC(=O)[C@@H]1CCCN1C(=O)[C@H](CO)NC(=O)[C@H](C)NC(=O)[C@H](CC(=O)O)NC(=O)[C@H](CCC(=O)O)NC(=O)CNC(=O)[C@@H]1CCCN1C(=O)[C@H](CCCCNC(=O)CC[C@H](NC(=O)CC[C@H](NC(=O)CCCCCCCCCCCCCCCCCCC(=O)O)C(=O)O)C(=O)O)NC(=O)[C@H](CCC(=O)O)NC(=O)[C@@H]1CCCN1C(=O)[C@H](CCCCN)NC(=O)[C@@H]1CCCN1)C(=O)N[C@@H](CCCNC(=N)N)C(=O)N[C@@H](Cc1c[nH]cn1)C(=O)N[C@@H](Cc1ccc(O)cc1)C(=O)N[C@@H](CC(C)C)C(=O)N[C@@H](CC(N)=O)C(=O)N[C@@H](Cc1c[nH]c2ccccc12)C(=O)N[C@@H](CC(C)C)C(=O)N[C@H](C(=O)N[C@@H](CCCNC(=N)N)C(=O)N[C@@H](CCC(N)=O)C(=O)N[C@@H](CCCNC(=N)N)C(=O)N[C@@H](Cc1ccccc1)C(N)=O)[C@@H](C)O) [Compound A78]
"8.9 -Log(EC50, M)","10.4 -Log(EC50, M)",PKPEAPGK([γGlu-γGlu-C20 diacid])DASPKEWDRYYKDLRHYLNWLTRQRF-NH2 [Compound A76]
